Data from a protein production outcome set (Wang et al. 2014).

Assay: label from the status in PepcDB records

Sequence | protein production
MIGEQPGDIFRRGEILNHTYEIEGVLGRGGTGEIYRARNLISGRIVAVKALNRRFSGNDDYIGLMRREEQLRDVIDDAVVRYTECSRSDGGHVFLVMDHIEGPSLAQAMEAGRIEARDLLIVAHRVAEGLRAAHRHGIVHRDLSPDNIILRGGAPERATIIDFGIAKDLSAGAQTIVGNDFAGKYEYAAPEQIDGRAEPRSDLYALGATLLAAFRGEAPFAGATPGEIVRRKGRPLDTEGVPEPLRGLIDRLAAPEAERRPASAAAVVEELDRLLRPQAEPDRRRRVWPALAALLLLAVLAVGGWIALRPPLAEPYRLTASAADLAGEAPDRAAAARIAAAYARAAGHESHGLRIARGAPEGWADAAAEVLALAATLDDWRLALNGAEAALSGRAPDARSAAMVETRFRDWASRRGFEPRLQIEVVPPPLDPQAVSALLQRHADCGPLSEGGTEGVITGAVATAETAAALERALADLRGDRPLHLAITVLNPAICAVRQALPDRPAQGLSIWLGEAATGAPNLAGIYGPGDYPLVEIRLPAGMSGLALWVGLVDVTGSVLNLLPNVYSDESRIDRLGTVANGVRTIRVMPLEFQVAGGTQLFALQVEARDFGRSELVAVVSRGDLFALRRPKDESVASFTEALSALRRDDPDRLVAVTRRLLESRPSR | failed
MSPAAECRRQLSLDSSEAIGLQPLMQRASNTAGVFVMIDTQLEQQLQGFSALQSLFEADFDVRRLFTAEDALEAGEYGRLTVEALRNDPAAGQLFEERWVLPELNLSSLLQLPEGSFGRVYAEMLVGNGFDPDYVIQIAPVEGDDDLSYFKRLWRTTHDFHHIATGLGTDPRGEVALQAFLMGQLPIPFSVVVVSMGLLRTSVAQPDRIPALVDAISDAFRRGRHSPQLLLAQRWDHFWALPVAEVRQQLQIADLEHHHHHH | failed
MTGALVSSEMMARAAAAAGLSDEADRPGPAPLASPSYLALESASILTDGGVFLKVMHPEMRQDFDLGAAMALARQAGEAGIGPRVLWADPAQGAIAMEALTEAGGWRRAMQVDLQEAPVLGAAMSALKALHATPALSSRFDPFAQIDGLIADYSRLGAPLPEDTGWLRRLIGAAEPVLRTGADLAPCRNDGAASNLMLGPGGAVRLVDYDRAGMNDPLYDVGALLAETTDFEREMQAGFAAYAGAFDEVAFARARLWSFVDDMLHALWSRLKARTSARGGVEWLKYGEWRLMRLRMALNHPQYEQKIRLAGGAA | failed
MSLEPSQIMPLSVLIAEDNDICRLVAAKALEKCTNDITVVTNGLQALQAYQNRQFDVIIMDIQMPVMDGLEAVSEIRNYERTHNTKRASIIAITADTIDDDRPGAELDEYVSKPLNPNQLRDVVLTCHSEGAEGHHHHHH | not failed
MRWILFILFCLLGAPAHAVSIPGVTTTTTTDSTTEPAPEPDIEQKKAAYGALADVLDNDTSRKELIDQLRTVAATPPAEPVPKIVPPTLVEEQTVLQKVTEVSRHYGEALSARFGQLYRNITGSPHKPFNPQTFSNALTHFSMLAVLVFGFYWLIRLCALPLYRKMGQWARQKNRERSNWLQLPAMIIGAFIIDLLLLALTLFVGQVLSDNLNAGSRTIAFQQSLFLNAFALIEFFKAVLRLIFCPNVAELRPFTIQDESARYWSRRLSWLSSLIGYGLIVAVPIISNQVNVQIGALANVIIMLCMTVWALYLIFRNKKEITQHLLNFAEHSLAFFSLFIRAFALVWHWLASAYFIVLFFFSLFDPGNSLKFMMGATVRSLAIIGIAAFVSGMFSRWLAKTITLSPHTQRNYPELQKRLNGWLSAALKTARILTVCVAVMLLLSAWGLFDFWNWLQNGAGQKTVDILIRIALILFFSAVGWTVLASLIENRLASDIHGRPLPSARTRTLLTLFRNALAVIISTITIMIVLSEIGVNIAPLLAGAGALGLAISFGSQTLVKDIITGVFIQFENGMNTGDLVTIGPLTGTVERMSIRSVGVRQDTGAYHIIPWSSITTFANFVRGIGSVVANYDVDRHEDADKANQALKDAVAELMENEEIRGLIIGEPNFAGIVGLSNTAFTLRVSFTTLPLKQWTVRFALDSQVKKHFDLAGVRAPVQTYQVLPAPGATPAEPLPPGEPTL | failed
MNFPISTIRIGGWVVVAKNPDDIVAKFYFAKKKLIWEFLFGEPETNTLRLKRKIEIQWNDVSSFEESISSRDETGILKIELKKRPTFFIETNPQAGKHTQWKQLDHDFTGDHASNYRRHTLHFPPGVLQKNLEKLVTDSFWSKLYEVPFPVHESRYFDSGFENNSSRNSHSHTVGFNVNNGPQHHFSQGIGGVGVGEGNFSMANGGWQRNSYSPVNSLNYNTANEFFGMQATPPSSQVVNEHYNTQNDFTGSQFGYHMNQDEIQKILESQAYAVPDTQTKLMSSAMNNVPKYPQAGSCLESMLFWYEHRRRFQQ | failed
RHDFSDQTAMLELFSQLFGPYPFDQYSVVVTEDDLEIPLEAQGLSIFGANHAGGTKQWERLIAHELAHQWFGNSLGLAQWDDIWLNEGFACYAE | failed
MIFYFSGTGNSKWIAEQIAKAQNEVLVFMPNAIRDGIEEFVLADDEKVGFVFPVYSWGPPLSVLRFLDWITLSNYHSQYVFFVCSCGDDTGLTEELFRRALSRKGMECNAGFSVAMPNNYVLLPGFDVDKKELEKKKLDEAVGRVEEINDSITGKKIGFHCNEGSFPWFKTKVLNPLFNRFMTSAKPFYATDDCIGCKRCERICPVGNVVMIGWRPVWGMDCTSCLACYHVCPKHAVQYGRRTKRKGQYLNPNVSISHEAAAQLEHHHHHH | not failed
AIPQHEHPMIIAGFGRFGQIIARNARLNHIGFTAIDNNLQQIDFVRRYGGTLYYGDITQPDILRAAGIEKAKVFILAIDDVEDSMNVARHIRLNYPQITLMVRARDRYQVHLLRDLGVEHIWRETYLSSLGMAYRALCELGIP | failed
MSTLKLFVHNHSSKGDQSFLKTITFAITHFTVAFTVAYLLTGDILIGSLIAMVEPAINTVAYFFHEKIWARHQRNTTANAMNLRQNTH | failed
MSEANSGPGRVTREQRGHLFLIGLDRAGKRNAFDSAMLADLALAMGEYERSEESRCAVLFAHGEHFTAGLDLMELAPKLAASGFRYPDGGVDPWGVVQPRRSKPLVVAVQGTCWTAGIELMLNADIAVAARGTRFAHLEVLRGIPPLGGSTVRFPRAAGWTDAMRYILTGDEFDADEALRMRLLTEVVEPGEELARALEYAERIARAAPLAVRAALQSAFQGRDEGDDAALSRVNESLAALIGSEDVREGVLAMV | not failed
MDLFPVLKELAQKTPSKILLIVLDGVGGLPLEPGGPTELEAAKTPNLDRLAEESALGLLTPVYPGLAPGSGPGHLALFGYDPFRYVVGRGALSALGLGADFREGDVALRGNFATLDPEGKVVDRRAGRPPTEENQRVIAKLKEAIPRIEDVEVLFYTESEHRFLVILRGEGLEDKVTDTDPQKTGLPPLKAKALDEASERTARLVNLLSERIREVLKDEPRMNGALFRGASKKPSFPRMQEVYKLTPAAIASYPMYKGLASLVGMEVLPVEGEGDALEGKLKALKENWGRYDFFYFHVKKTDAMGEDGNFHGKVEKVELFDALLPEILALGPDVLAITGDHSTPALLKAHSWHPVPLLLKAPYLRADEARRFTEREAQRGSLGHLRGVELMPLLLAHAGKLLKYGA | failed
SFYLSELEHSLRVPPHLLNLPLEDAIKSVLQNVFLDKVLADLGLCVSIYDIKSVEGGFVLPGDGAATYKVGLRIVVFRPFVGEVIAAKFKESDANGLRLTLGFFDDIYVPAPLMPKPNRCEPDPYNRKQMIWVWEYGEPKEDYIVDDACQIKFRVESISYPSVPTERAEDAKPFAPMVVTGNMDDDGLGPVSWWDSYEQVDQEE | failed
MRLYERSSCLLQPPDYSLMNDSTDAQDVSQARVWLWAARPKTLGAAVAPVLVGTGMALEAGAWHLLSALLALAGAVLIQVGVNYHNDYADYVQGADTQERVGPLRVTQAGLVAPQTMRRATILVFGLAVMAGLYLIARGGWPILAVGVASIGAAIWYTAGRYSLAALGLADVFVFVFFGPVAVGGTYYVQALSLPTEVLLAGGGPGLLSIGILLVNNVRDVAEDRRAGKRTLVVRFGRRFGVAAYGACLVGALLLAGLLAAGLFGTTPHPWAALPLGLLPLAIGPIRRLSETTDPEKLNPLLGATGRILVLWALLFAVGWNL | failed
MDNLSFHDGNIFNLLHTRSQDPSHEVDQRMQFHSSLVRRLSQEQELEGHQGCVNALAWNSNGSLLISGSDDLRINIWNYSSRKLLHSIDTGHTANIFCTKFVPETSDELVVSGAGDAEVRLFNTSRLSGRAEDDNAIIPSALYQCHTRRVKKLAVEPGNPNVVWSASEDGTLRQHDFRESTSCPPAGTAHQECRSVLLDLRSGAKRALADPPKQTLSLKSCDISATRPHLLLVGGSDAFARLYDRRMLPPLASSRKRMPPPPCVNYFCPMHLSERGRTNLHLTHVTFSPNGEEVLLSYSGEHVYLMNVNNGICSTGIMQYTPGDVDNLFSFSNNLHDVESPPQVSTTPQNGFHRSSNAATVKKCTELVEIAKWSLEEGTDVFYAIEAANEVLDAHSNDIESALRHECLCTRAALLLKRKWKNDAHMAVRDCHNARRIDASSFKAHYYMSEALQQLGKCKEALDFATAAQHMNPSDADIVAKVESIKRDLQAAGAEKNEETGAGTTRVLSLSDILYRSEANSDSSHDMSRSEREDSDYDEELELDIQTSLSDDEGRDTDSNSMRGSLNLRIHRVGDDKPMENTVDNASSGTASSSQNDRTSYQPEGAIDMKRRYVGHCNVGTDIKQASFLGQRGEYIASGSDDGRWFIWEKQTGRLMKVLVGDESVLNCIQCHPFDSVVATSGIDNTIKIWSPTASVPSIVAGGSAGPATANVVEVMESNQQKLSRNRENPLSVELMQRFRMQEFAEGNFHPFECTQS | failed
MYKCLIISILTWFSCIVSVYAQAIPKEARNYLEEGKIYYDGANYLKALDSYLGAYKFVPNDPGVNYSIALCYIQTYSYDKALTYLIPAKKAGIKDPLLDYYMGLAYHANSNIDEALKSLTAFQSTLRSSDKELTAQTAKYITYCNNAKTLMLTPVKMTITNLGASVNSAYPDYNPAISVDESTIIYTSRRPNSTGGLISEMDGHYFEDIYMSNKQTNNSWGTSIQIDQTINTTSHDACVGLSSEGQTMIVYKDDGGGDLYYSNLSGQNWSKPISFGKAINTDGWEACGNFSPDGNYLFFVSNKKGGFGGTDIYYAVKNAAGVWGAPVNMGPEINTKEDEFSPYLHADGKTFYFSSQAHTSMGGFDIFQSTIDLSMQPIAVKSKPENLGYPINTVGDEIYFVWSADNKRAYFSSAREGGLGDKDLYLLERPVAKAALVLLKGTISDCKTKEFIQASITVTDIESGKLIGKYVSNSSTGKYIVTLPAGKNYSITVEAKGYLFHSKNINIPKLEEFKEIDDVICLDKIDIGTTIVLNNVFFDVNKSTLRKESETELDKLFDILSKNPKIKIEVAGHTDSDGDTQANLTLSDARAHTVKDYLIGKGISADRIIYVGHGEGKPVVPNDTPENKQLNRRTEIKILEN | failed
KRQKIHLGDRSQKCSKCGIIFIRRSTLSRRKTPMCEKCRKDSCQEAALNKDEGNESGKKT | not failed
WILASTTEGAPSVAPLNVTVFLNESSDNVDIRWMKPPTKQQDGELVGYRISHVWQSAGISKELLEEVGQNGSRARISVQVHNATCTVRIAAVTRGGVGPFSDPVKIFIPAH | not failed
MSEEKNLVINANDSLGEIVIAPEVIEVIIGIAASKVEGVYGMRGTFANNVNELLGRAAHGKGVYLRTEEEGLKVDIYCYLNYGVSVPKVALEMQDRVKQQVLFMTDIDLVEVNIHVVAVVPEKIPQPDLNELFPEDEDGEENELEHHHHHH | not failed
MHAQTKDLTPIKGIRYYYPPDDAVLVFKDEKERIHYGGMPVPLLEDDFARLDGEPSYDEVGRGVYQALRSNPDCILCDKYAALLRDAYPHYLAELASNAIMIDSKDVEVPYLDRKIACLKVLALLEPQNPALPLEIGRVFLDRGMRLSALHLSTVSIYRAEHFLNRAHTLAPDDRNINRYLGEAYYLLGKYDEAVGFWRKATTTDEPEAERLRERIERISAGNVPLIPPVDYLEAIGAAFACNQTGEYEESIAILQDILMDPVFSEEFPIPEIHCVIGKGFTALDMPKYAEAEFRQALVMDPAHEEARALLATIAAA | failed
